Measurements: the supplement of paper PMC11908140

B1: library; numbered along this chain (parent)
chain: MRKPRAAVGSGHRKQAASQEGRQKHAKNNSQAKPSACDGLARQPEEVVLQASVSSYHLFRDVAEVTAFRGSLLSWYDQEKRDLPWRRRAEDEMDLDRRAYAVWVSEVMLQQTQVATVINYYTGWMQKWPTLQDLASASLEEVNQLWAGLGYYSRGRRLQEGARKVVEELGGHMPRTAETLQQLLPGVGRYTAGAIASIAFGQATGVVDGNVARVLCRVRAIGADPSSTLVSQQLWGLAQQLVDPARPGDFNQAAMELGATVCTPQRPLCSQCPVESLCRARQRVEQEQLLASGSLSGSPDVEECAPNTGQCHLCLPPSEPWDQTLGVVNFPRKASRKPPREESSATCVLEQPGALGAQILLVQRPNSGLLAGLWEFPSVTWEPSEQLQRKALLQELQRWAGPLPATHLRHLGEVVHTFSHIKLTYQVYGLALEGQTPVTTVPPGARWLTQEEFHTAAVSTAMKKVFRVYQGQQPGTCMGSKRSQVSSPCSRKKPRMGQQVLDNFFRSHISTDAHSLNSAAQ

Variants of: B1
Assay: 8OG:A repair function score (normalized; synonymous = 0, nonsense = -1) (normalized log-likelihood score); higher = more repair activity (WT-like)
Conditions: with 8OG:A DNA repair reporter (GFP) in HEK-293 MUTYH KO cells
How it was run: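 GFP+ (repair) and GFP− bins of viable mCherry+ cells were collected at 72 h from MUTYH knockout HEK-293 cells bearing lentiviral MUTYH cDNA NNN codon-scan libraries in 10 pg/ml doxycycline, co-transfected with an 8OG:A GFP repair reporter and mCherry. Tile amplicons were sequenced, and per-tile Rosace fitness scores were normalized to a repair function score anchored on synonymous and nonsense distributions. Synonymous medians were set to 0 and nonsense to -1, with variants under 300 counts per million at the start removed.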
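Also: cells sorted at 72 h after reporter transfection.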

| Variant | 8OG:A repair function score |
| --- | --- |
| N210M | -0.923 |
| G186Y | -0.992 |
| H416Q | 0.399 |
| R87P | -0.0432 |
| R87I | -0.0226 |
| R87W | -0.0564 |
| A238E | -0.688 |
| H172C | -0.0393 |
| Q181I | -0.0381 |
| K390V | -0.164 |
| K493Y | 0.00504 |
| K493S | 0.0155 |
| A259S | -0.0739 |
| E413Q | -0.0587 |
| A357N | 0.104 |
| G193Q | -0.238 |
| T263Q | -0.129 |
| R2T | 0.0193 |
| S367E | 0.154 |
| C272S | -1.17 |
| G479T | -0.0258 |

| Variant | 8OG:A repair function score |
| --- | --- |
| G479L | 0.00935 |
| A400Q | -0.0826 |
| L360V | -0.666 |
| E90G | 0.00689 |
| C269W | -1.4 |
| N503E | 0.0211 |
| N503F | 0.0039 |
| N503G | 0.00621 |
| A199C | 0.000923 |
| V415H | -0.115 |
| C477Y | -0.016 |
| E140K | -0.15 |
| Q310S | -0.0462 |
| R219M | -0.571 |
| S276F | -0.0215 |
| R81F | -1.5 |
| G236D | 0.156 |
| A41Q | 0.168 |
| Q386M | 0.34 |
| V166S | -0.0616 |
| V166M | -0.0629 |

| Variant | 8OG:A repair function score |
| --- | --- |
| R279P | -1.12 |
| K481R | 0.0229 |
| Q202M | -0.234 |
| G429Q | -0.283 |
| V500Y | -0.00833 |
| L430A | -0.143 |
| G297S | -0.00596 |
| P273T | -0.453 |
| G171M | -0.536 |
| G171S | -0.267 |
| Y120W | -0.465 |
| A135Y | -0.211 |
| S153C | -0.074 |
| L169V | -0.409 |
| K164I | 0.0586 |
| T191H | -0.486 |
| T191G | -0.428 |
| T449Q | -0.0362 |
| L448R | -0.341 |
| V230R | -0.524 |
| A461N | -0.222 |

| Variant | 8OG:A repair function score |
| --- | --- |
| Q111P | -1.13 |
| P494A | 0.0124 |
| P494C | 0.0281 |
| Q484M | 0.0126 |
| V468S | -0.18 |
| L289E | -0.00394 |
| R332F | -0.0556 |
| D322C | -0.00563 |
| A115W | -0.182 |
| S507H | -0.084 |
| S507G | -0.00119 |
| F250D | -1.01 |
| D82Q | -0.0442 |
| N517Q | 0.00486 |
| N517E | -0.0872 |
| N517I | -0.00121 |
| V218A | -0.268 |
| Q50S | 0.0939 |
| E342C | 0.0508 |
| A280R | -0.814 |
| F504D | 0.0276 |
